Assay results from patent US20250092108A1 (Xencor, published 2025).
Numbering of substitutions follows the chain as printed.

T1: IL-2 receptors (high-affinity IL-2Rαβγ or intermediate-affinity IL-2Rβγ) on PBMC lymphocytes (UniProt P01589 22-272; P14784 27-551; P31785 23-369, limits assumed)
T1 sequence (looked up) 1: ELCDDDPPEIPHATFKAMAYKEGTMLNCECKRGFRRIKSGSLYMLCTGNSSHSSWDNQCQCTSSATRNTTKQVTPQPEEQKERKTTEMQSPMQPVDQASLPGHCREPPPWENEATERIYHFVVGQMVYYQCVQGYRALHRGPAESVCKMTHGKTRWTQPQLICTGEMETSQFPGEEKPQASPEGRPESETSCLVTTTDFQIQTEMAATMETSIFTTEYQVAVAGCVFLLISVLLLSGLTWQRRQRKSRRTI
T1 sequence (looked up) 2: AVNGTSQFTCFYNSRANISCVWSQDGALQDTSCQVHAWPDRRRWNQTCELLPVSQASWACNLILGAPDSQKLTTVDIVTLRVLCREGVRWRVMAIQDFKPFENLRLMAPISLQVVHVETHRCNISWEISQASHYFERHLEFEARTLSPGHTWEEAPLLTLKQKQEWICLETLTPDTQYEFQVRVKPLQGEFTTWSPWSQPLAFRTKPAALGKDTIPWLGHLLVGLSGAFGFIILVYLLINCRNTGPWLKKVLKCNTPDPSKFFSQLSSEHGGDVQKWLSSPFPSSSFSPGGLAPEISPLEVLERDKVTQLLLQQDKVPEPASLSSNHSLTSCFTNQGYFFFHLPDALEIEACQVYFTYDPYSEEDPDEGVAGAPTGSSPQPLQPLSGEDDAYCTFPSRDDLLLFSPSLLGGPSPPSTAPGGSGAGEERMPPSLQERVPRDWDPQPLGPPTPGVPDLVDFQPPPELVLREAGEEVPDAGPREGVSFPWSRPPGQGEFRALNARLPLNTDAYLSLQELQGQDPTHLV
T1 sequence (looked up) 3: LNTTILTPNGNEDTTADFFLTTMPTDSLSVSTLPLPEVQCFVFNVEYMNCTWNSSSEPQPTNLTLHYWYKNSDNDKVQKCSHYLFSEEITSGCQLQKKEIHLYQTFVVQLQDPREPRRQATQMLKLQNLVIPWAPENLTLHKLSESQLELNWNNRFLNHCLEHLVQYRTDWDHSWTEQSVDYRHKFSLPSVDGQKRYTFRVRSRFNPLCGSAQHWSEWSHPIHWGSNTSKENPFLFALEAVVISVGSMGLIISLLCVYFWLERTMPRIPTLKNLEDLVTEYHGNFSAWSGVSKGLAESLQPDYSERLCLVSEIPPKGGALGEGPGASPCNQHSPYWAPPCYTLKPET

B1: XENP26105 (Fc fusion)
chain 1: EPKSSDKTHTCPPCPAPPVAGPSVFLFPPKPKDTLMISRTPEVTCVVVDVKHEDPEVKFNWYVDGVEVHNAKTKPREEEYNSTYRVVSVLTVLHQDWLNGKEYKCKVSNKALPAPIEKTISKAKGQPREPQVYTLPPSREEMTKNQVSLTCDVSGFYPSDIAVEWESDGQPENNYKTTPPVLDSDGSFFLYSKLTVDKSRWEQGDVFSCSVMHEALHNHYTQKSLSLSPGK
chain 2: APASSSTKKTQLQLEHLLLNLQMILNGINNYKNPKLRRMLTFKFYMPKKATELKHLQCLEEELKPLEEVLNLAQSKNFHLRPRDLISNINVIVLELKGSETTFMCEYADETATIVEFLNRWITFSQSIISTLTEPKSSDKTHTCPPCPAPPVAGPSVFLFPPKPKDTLMISRTPEVTCVVVDVKHEDPEVKFNWYVDGVEVHNAKTKPREEQYNSTYRVVSVLTVLHQDWLNGKEYKCKVSNKALPAPIEKTISKAKGQPREPQVYTLPPSREQMTKNQVKLTCLVKGFYPSDIAVEWESNGQPENNYKTTPPVLDSDGSFFLYSKLTVDKSRWQQGNVFSCSVMHEALHNHYTQKSLSLSPGK
B2: XENP26109 (Fc fusion)
chain 1: B1 chain 1
chain 2: B1 chain 2 with R37T, N71K

Target: T1, IL-2 receptors (high-affinity IL-2Rαβγ …)
Experiment: cell-based or functional assay

Binder | EC50, induction of STAT5 phosphorylation (in vitro potency)
B1 | 1 nM
B2 | 5 nM
